Data published in patent publication US20230174655A1 (published 2023).

Tests used:
[1] = target: T1, FcγRIIa type H extracellular domain with C-terminal His tag (human, UniProt P12318 34-217); test: SPR (Biacore), antibody captured, FcgR analyte
T1 construct: extracellular domain; also called FcRIIaH; FcgRIIaH; not shown: His tag at the C terminus
T1 sequence (looked up): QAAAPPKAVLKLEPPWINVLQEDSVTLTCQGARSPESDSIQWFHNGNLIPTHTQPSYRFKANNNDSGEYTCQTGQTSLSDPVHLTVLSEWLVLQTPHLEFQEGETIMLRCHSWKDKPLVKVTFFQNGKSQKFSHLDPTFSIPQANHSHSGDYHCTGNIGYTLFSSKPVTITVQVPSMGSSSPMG
From the text: (§1) In the table, SEQ ID NO refers to the SEQ ID NO of the H chain of the evaluated variant, and alteration refers to the alteration introduced into IL6R-B3 (SEQ ID NO: 40). […] Furthermore, KD(IIaR)/KD(IIb) and KD(IIaH)/KD(IIb) in the table respectively represent the value obtained by dividing the KD value of each variant for FcγRIIaR by the KD value of each variant for FcγRIIb, and the value obtained by dividing the KD value of each variant for FcγRIIaH by the KD value of each variant for FcγRIIb. KD(IIb) of the parent polypeptide/KD(IIb) of the altered polypeptide refers to the value obtained by dividing the KD value of the parent polypeptide for FcγRIIb by the KD value of each variant for FcγRIIb.
(§2) Kinetic analyses for calculating the KD values of each altered antibody for FcγR were performed according to the following method. First, antibodies of interest were captured onto the above-mentioned sensor chips, and an Fcγ receptor diluted with the running buffer was allowed to interact. The Biacore™ Evaluation Software was used to globally fit the measured results to the obtained sensorgram using the 1:1 Langmuir binding model, and the association rate constant ka (L/mol/s) and the dissociation rate constant kd (1/s) were calculated; and from those values the dissociation constants KD (mol/L) were calculated.

[2] = target: T2, FcγRIIb extracellular domain with C-terminal His tag (human, UniProt P31994 43-217); test: SPR (Biacore), Reference Example 2
T2 construct: extracellular domain; also called FcgRIIb; FcγRIIb extracellular region
T2 sequence (looked up): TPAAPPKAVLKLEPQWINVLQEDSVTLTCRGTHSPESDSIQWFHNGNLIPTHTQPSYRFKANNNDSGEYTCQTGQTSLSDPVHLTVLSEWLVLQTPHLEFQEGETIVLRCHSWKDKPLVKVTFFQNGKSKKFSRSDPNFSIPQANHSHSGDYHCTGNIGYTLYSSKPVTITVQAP
From the text: (§3) Furthermore, KD(IIaR)/KD(IIb) and KD(IIaH)/KD(IIb) in the table respectively show the value obtained by dividing the KD value of each variant for FcγRIIaR by the KD value of each variant for FcγRIIb, and the value obtained by dividing the KD value of each variant for FcγRIIaH by the KD value of each variant for FcγRIIb. KD(IIb) of the parent polypeptide/KD(IIb) of the altered polypeptide refers to a value obtained by dividing the KD value of the parent polypeptide for FcγRIIb by the KD value of each variant for FcγRIIb.
as §2

[3] = target: T3, FcγRIIa type R extracellular domain with C-terminal His tag (human, UniProt P12318 34-217); test: SPR (Biacore), Reference Example 2
T3 construct: extracellular domain; also called FcγRIIa R; FcγRIIaR
T3 sequence (looked up): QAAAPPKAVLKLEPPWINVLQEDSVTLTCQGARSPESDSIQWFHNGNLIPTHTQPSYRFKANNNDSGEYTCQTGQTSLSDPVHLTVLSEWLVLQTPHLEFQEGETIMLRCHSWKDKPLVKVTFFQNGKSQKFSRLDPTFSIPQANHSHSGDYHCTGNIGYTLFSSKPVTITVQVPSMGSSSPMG
From the text: as §3, §2

[4] = target: T4, FcγRIIa type R extracellular domain with C-terminal His tag (human, UniProt P12318 34-217); test: SPR (Biacore), antibody captured on chip, FcγR extracellular domain as analyte
T4 construct: extracellular domain; also called FcgRIIaR; FcγRIIa R; not shown: His tag at the C terminus
T4 sequence (looked up): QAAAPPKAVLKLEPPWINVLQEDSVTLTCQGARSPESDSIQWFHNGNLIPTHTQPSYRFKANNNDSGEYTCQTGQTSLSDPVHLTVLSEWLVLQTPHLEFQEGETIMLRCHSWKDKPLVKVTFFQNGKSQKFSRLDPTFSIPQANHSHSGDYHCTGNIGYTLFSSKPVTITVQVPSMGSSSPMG
From the text: as §1, §2

B1: IL6R-BF146/IL6R-L (antibody, human IgG1, kappa)
heavy: QVQLQESGPGLVKPSETLSLTCAVSGHSISHDHAWSWVRQPPGEGLEWIGFISYSGITNYNPSLQGRVTISRDNSKNTLYLQMNSLRAEDTAVYYCARSLARTTAMDYWGEGTLVTVSSASTKGPSVFPLAPSSKSTSGGTAALGCLVKDYFPEPVTVSWNSGALTSGVHTFPAVLQSSGLYSLSSVVTVPSSSLGTQTYICNVNHKPSNTKVDKKVEPKSCDKTHTCPPCPAPEYLGDDSVFLFPPKPKDTLMISRTPEVTCVVVDVSHEDPEVKFNWYVDGVEVHNAKTKPREEQYNSTYRVVSVLTVLHQDWLNGKEYKCKVSNAALPAPIEKTISKAKGQPREPQVYTLPPSRDELTKNQVSLTCLVKGFYPSDIAVEWESNGQPENNYKTTPPVLDSDGSFFLYSKLTVDKSRWQQGNVFSCSVMHEALHNHYTQESLSLSP
light: not shown
notes: alteration printed: L234Y/G237D/P238D/K326A; copies: 2 + 2
- Kd [1]: 10 µM

B2: IL6R-PD042/IL6R-L (antibody, human IgG1, kappa)
heavy: QVQLQESGPGLVKPSETLSLTCAVSGHSISHDHAWSWVRQPPGEGLEWIGFISYSGITNYNPSLQGRVTISRDNSKNTLYLQMNSLRAEDTAVYYCARSLARTTAMDYWGEGTLVTVSSASTKGPSVFPLAPSSKSTSGGTAALGCLVKDYFPEPVTVSWNSGALTSGVHTFPAVLQSSGLYSLSSVVTVPSSSLGTQTYICNVNHKPSNTKVDKKVEPKSCDKTHTCPPCPAPEWLGGDSVFLFPPKPKDTLYISRTPEVTCVVVDVSHEDPEVKFNWYVDGVEVHNAKTKPREEQYNSTYRVVSVLTVLHQDWLNGKEYKCKVSNKALPAPIEKTISKAKGQPREPQVYTLPPSRDELTKNQVSLTCLVKGFYPSDIAVEWESNGQPENNYKTTPPVLDSDGSFFLYSKLTVDKSRWQQGNVFSCSVMHEALHYHYTQKSLSLSP
light: not shown
notes: H chain: IL6R-F11 with P238D/L234W (EU numbering); also called P238D/L234W; copies: 2 + 2
- Kd [2]: 20 µM
- Kd [3]: 16 µM

B3: IL6R-BP142/IL6R-L (antibody, human IgG1, kappa)
heavy: QVQLQESGPGLVKPSETLSLTCAVSGHSISHDHAWSWVRQPPGEGLEWIGFISYSGITNYNPSLQGRVTISRDNSKNTLYLQMNSLRAEDTAVYYCARSLARTTAMDYWGEGTLVTVSSASTKGPSVFPLAPSSKSTSGGTAALGCLVKDYFPEPVTVSWNSGALTSGVHTFPAVLQSSGLYSLSSVVTVPSSSLGTQTYICNVNHKPSNTKVDKKVEPKSCDKTHTCPPCPAPELLGGDSVFLFPPKPKDTLMISRTPEVTCVVVDVSHEDPEVKFNWYVDGVEVHNAKTKPREEQYNSTYRVVSVLTVLHQDWLNGKEYKCKVSNNALPAPIEKTISKAKGQPREPQVYTLPPSRDELTKNQVSLTCLVKGFYPSDIAVEWESNGQPENNYKTTPPVLDSDGSFFLYSKLTVDKSRWQQGNVFSCSVMHEALHNHYTQESLSLSP
light: not shown
notes: IgG1; P238D/K326N (EU) introduced into IL6R-B3
- Kd [4]: 16 µM
